We go through three molecules from paper PMC8510580, “HspB8 prevents aberrant phase transitions of FUS by chaperoning its folded RNA-binding domain” (eLife, 2021).

First the molecules themselves.
B3: FUS-G156E-GFP (FUSm) (natural protein, human, UniProt P35637 1-526, looked up)
chain: MASNDYTQQATQSYGAYPTQPGQGYSQQSSQPYGQQSYSGYSQSTDTSGYGQSSYSSYGQSQNTGYGTQSTPQGYGSTGGYGSSQSSQSSYGQQSSYPGYGQQPAPSSTSGSYGSSSQSSSYGQPQSGSYSQQPSYGGQQQSYGQQQSYNPPQGYEQQNQYNSSSGGGGGGGGGGNYGQDQSSMSSGGGSGGGYGNQDQSGGGGSGGYGQQDRGGRGRGGSGGGGGGGGGGYNRSSGGYEPRGRGGGRGGRGGMGGSDRGGFNKFGGPRDQGSRHDSEQDNSDNNTIFVQGLGENVTIESVADYFKQIGIIKTNKKTGQPMINLYTDRETGKLKGEATVSFDDPPSAKAAIDWFDGKEFSGNPIKVSFATRRADFNRGGGNGRGGRGRGGPMGRGGYGGGGSGGGGRGGFPSGGGGGGGQQRAGDWKCPNPTCENMNFSWRNECNQCKAPKPDGPGGGPGGSHMGGNYGDDRRGGRGGYDRGGYRGRGGDRGGFRGGRGGGDRGGFGPGKMDSRGEHRQDRRERPY
notes: FUS (fused in sarcoma), human, UniProt P35637, with G156E; also called FUSm-GFP; source: Sf9 cells, purified as described (Patel et al., 2015); not shown: 5 AA tag used for purification, N-terminal, kept; GFP, C-terminal, kept

The target of data set [1] is B3. The data set is described as follows: cross-linking; XL-MS of FUSm (or FUSm_K9) mixed with the partner under condensate-inducing low salt (75 mM): low-salt mixture or dense phase separated by centrifugation; H12/D12 DSS, 30 min, 37°C; also 3 hr after formation and with an RNA oligonucleotide. The settings on record: both partners purified.
Data set [2] deals with the molecule itself. Put plainly: cross-linking; quantitative XL-MS of FUSm alone: low salt (75 mM KCl, condensates) against high salt (500 mM KCl, no phase separation); 1.9 mM H12/D12 DSS, 30 min, 37°C.
The target in data set [3] is T1, Taf-15 (UniProt Q92804 1-592).
T1 construct: stress granule protein Taf-15; no methods for its production; also called stress granule protein Taf-15
T1 sequence (Q92804 whole entry): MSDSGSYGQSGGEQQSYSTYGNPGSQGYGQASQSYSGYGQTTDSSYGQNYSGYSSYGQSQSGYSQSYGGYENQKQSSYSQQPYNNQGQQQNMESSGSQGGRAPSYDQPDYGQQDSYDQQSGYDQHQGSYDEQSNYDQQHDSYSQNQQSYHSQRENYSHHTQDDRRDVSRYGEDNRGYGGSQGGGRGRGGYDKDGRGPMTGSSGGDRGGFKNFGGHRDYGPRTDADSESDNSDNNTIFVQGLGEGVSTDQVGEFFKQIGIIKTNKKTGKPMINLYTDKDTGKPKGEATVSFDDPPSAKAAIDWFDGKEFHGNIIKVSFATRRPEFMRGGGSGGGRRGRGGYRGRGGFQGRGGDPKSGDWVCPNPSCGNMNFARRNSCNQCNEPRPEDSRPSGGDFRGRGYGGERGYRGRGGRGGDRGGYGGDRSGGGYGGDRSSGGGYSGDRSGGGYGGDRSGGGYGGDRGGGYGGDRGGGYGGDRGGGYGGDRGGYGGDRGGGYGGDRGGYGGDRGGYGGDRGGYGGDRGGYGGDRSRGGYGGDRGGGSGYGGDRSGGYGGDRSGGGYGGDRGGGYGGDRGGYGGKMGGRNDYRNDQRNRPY
The data set is described as follows: MST; 33 nM FUSm, partner titrated; non-phase separating conditions (500 mM KCl). To be noted: both partners purified.

B1: HspB8-WT (natural protein, UniProt Q9UJY1 1-196, looked up)
chain: MADGQMPFSCHYPSRLRRDPFRDSPLSSRLLDDGFGMDPFPDDLTASWPDWALPRLSSAWPGTLRSGMVPRGPTATARFGVPAEGRTPPPFPGEPWKVCVNVHSFKPEELMVKTKDGYVEVSGKHEEKQQEGGIVSKNFTKKIQLPAEVDPVTVFASLSPEGLLIIEAPQVPPYSTFGESSFNNELPQDSQEVTCT
notes: small heat shock protein HspB8; IDR printed as AA1-71 and alpha-crystallin domain as AA72-196; The article's keywords name Human as organism; also called small heat shock protein HspB8; source: E. coli BL21 Codon RIL, purified (GST, PreScission cleavage, reverse GST, ResourceQ); not shown: GST, N-terminal, cleaved
On to B1, for which the binding result in data set [1] is listed as “binds”.

B2: HspB8-K141E (natural protein, UniProt Q9UJY1 1-196, looked up)
chain: MADGQMPFSCHYPSRLRRDPFRDSPLSSRLLDDGFGMDPFPDDLTASWPDWALPRLSSAWPGTLRSGMVPRGPTATARFGVPAEGRTPPPFPGEPWKVCVNVHSFKPEELMVKTKDGYVEVSGKHEEKQQEGGIVSKNFTEKIQLPAEVDPVTVFASLSPEGLLIIEAPQVPPYSTFGESSFNNELPQDSQEVTCT
notes: small heat shock protein HspB8 with the Charcot-Marie Tooth disease-associated mutation K141E in the alpha-crystallin domain; Same construct as m2 with K141E; also called K141E mutant; HspB8-K141E mutant; source: E. coli BL21 Codon RIL, purified (GST, PreScission cleavage, reverse GST, ResourceQ); not shown: GST, N-terminal, cleaved
As for B2, the binding result in data set [1] is listed as “binds”.

Usually Kd stands for the concentration at which binding is half-saturated. A low value points to a tighter complex. In the case of B3, in data set [2], the binding result was “binds”. Moreover, in data set [3], binding was put at a Kd of 260 nM.
